T1: eGFP C-terminal fused full-length human OASL (human, UniProt Q15646 1-514)
T1 construct: also called OASL–GFP; GFP-tagged full-length OASL; source: E. coli BL21 DE3 (pLys), purified (glutathione sepharose 4B, GST removed with PreScission protease); not shown: eGFP, C-terminal, kept
T1 sequence (looked up): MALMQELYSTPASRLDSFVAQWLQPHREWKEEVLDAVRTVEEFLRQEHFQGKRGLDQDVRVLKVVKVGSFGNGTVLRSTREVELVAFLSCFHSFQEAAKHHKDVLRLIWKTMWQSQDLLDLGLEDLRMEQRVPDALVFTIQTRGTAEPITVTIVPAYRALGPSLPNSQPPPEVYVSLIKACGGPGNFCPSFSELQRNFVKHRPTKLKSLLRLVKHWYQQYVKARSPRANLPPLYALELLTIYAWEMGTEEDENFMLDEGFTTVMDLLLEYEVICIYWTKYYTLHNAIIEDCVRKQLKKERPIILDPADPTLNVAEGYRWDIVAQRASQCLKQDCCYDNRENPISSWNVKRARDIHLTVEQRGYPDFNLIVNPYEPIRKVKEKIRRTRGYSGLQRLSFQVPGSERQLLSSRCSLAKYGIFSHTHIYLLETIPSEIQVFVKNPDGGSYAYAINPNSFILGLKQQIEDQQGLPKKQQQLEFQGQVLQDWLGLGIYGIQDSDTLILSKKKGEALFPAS


What was measured:
[1] = target: T1, eGFP C-terminal fused full-length human …; assay: in vitro recruitment into phase-separated droplets (fluorescence microscopy); settings: both partners purified
[2] = target: T2, mCherry C-terminal fused full-length human RIPK3 (human, UniProt Q9Y572 1-518); assay: as above; settings: both partners purified
T2 construct: also called RIPK3–mCherry; mCherry-tagged full-length RIPK3; source: E. coli BL21 DE3 (pLys), purified (glutathione sepharose 4B, GST removed with PreScission protease); not shown: mCherry, C-terminal, kept

binding result [1]	binding result [2]	Binder
binds	–	BFP C-terminal fused full-length human ZBP1 (natural protein, UniProt Q9H171 1-429, looked up, also called ZBP1–BFP; not shown: BFP, C-terminal, kept) MAQAPADPGREGHLEQRILQVLTEAGSPVKLAQLVKECQAPKRELNQVLYRMKKELKVSLTSPATWCLGGTDPEGEGPAELALSSPAERPQQHAATIPETPGPQFSQQREEDIYRFLKDNGPQRALVIAQALGMRTAKDVNRDLYRMKSRHLLDMDEQSKAWTIYRPEDSGRRAKSASIIYQHNPINMICQNGPNSWISIANSEAIQIGHGNIITRQTVSREDGSAGPRHLPSMAPGDSSTWGTLVDPWGPQDIHMEQSILRRVQLGHSNEMRLHGVPSEGPAHIPPGSPPVSATAAGPEASFEARIPSPGTHPEGEAAQRIHMKSCFLEDATIGNSNKMSISPGVAGPGGVAGSGEGEPGEDAGRRPADTQSRSHFPRDIGQPITPSHSKLTPKLETMTLGNRSHKAAEGSHYVDEASHEGSWWGGGI
binds	–	mCherry C-terminal fused C-terminal unstructured region of human RIPK3 (RIPK3 295–518) (domain or fragment, UniProt Q9Y572 295-518, looked up, also called RIPK3_(295–518)–mCherry; C-terminal RIPK3_(295–518); source: E. coli BL21 DE3 (pLys), purified (glutathione sepharose 4B, GST removed with PreScission protease); not shown: mCherry, C-terminal, kept) NAAVSTVKDFLSQLRSSNRRFSIPESGQGGTEMDGFRRTIENQHSRNDVMVSEWLNKLNLEEPPSSVPKKCPSLTKRSRAQEEQVPQAWTAGTSSDSMAQPPQTPETSTFRNQMPSPTSTGTPSPGPRGNQGAERQGMNWSCRTPEPNPVTGRPLVNIYNCSGVQVGDNNYLTMQQTTALPTWGLAPSGKGRGLQHPPPVGSQEGPKDPEAWSRPQGWYNHSGK
–	binds	purified untagged full-length OASL (natural protein, human, UniProt Q15646 1-514, looked up, also called purified human OASL protein; source: purified) MALMQELYSTPASRLDSFVAQWLQPHREWKEEVLDAVRTVEEFLRQEHFQGKRGLDQDVRVLKVVKVGSFGNGTVLRSTREVELVAFLSCFHSFQEAAKHHKDVLRLIWKTMWQSQDLLDLGLEDLRMEQRVPDALVFTIQTRGTAEPITVTIVPAYRALGPSLPNSQPPPEVYVSLIKACGGPGNFCPSFSELQRNFVKHRPTKLKSLLRLVKHWYQQYVKARSPRANLPPLYALELLTIYAWEMGTEEDENFMLDEGFTTVMDLLLEYEVICIYWTKYYTLHNAIIEDCVRKQLKKERPIILDPADPTLNVAEGYRWDIVAQRASQCLKQDCCYDNRENPISSWNVKRARDIHLTVEQRGYPDFNLIVNPYEPIRKVKEKIRRTRGYSGLQRLSFQVPGSERQLLSSRCSLAKYGIFSHTHIYLLETIPSEIQVFVKNPDGGSYAYAINPNSFILGLKQQIEDQQGLPKKQQQLEFQGQVLQDWLGLGIYGIQDSDTLILSKKKGEALFPAS
